Measured values reported in paper PMC7619190 (2026).
Where no end group is shown, it is not given here. [ ]: non-standard residue; d: D form. pY = N[C@@H](Cc1ccc(OP(=O)(O)O)cc1)C(=O)O

Biological target: human SRC SH2 domain (Gln147-Lys252), wild type (human, UniProt P12931-1 147-252)
Assay: ITC; SH2 pretreated with 1 mM TCEP

B1: optimized SRC binding phosphopeptide (EPQpYEEIP) (peptide)
peptide: EPQ[pY]EEIP
- Kd: 293 nM
